Measurements taken from US20160376333A1 (University of Washington, published 2016).

T1: human Bcl-B a.a. 11-175 with C-terminal avi-6his tag (human)
T1 construct: also called BCL2L10
T1 chain: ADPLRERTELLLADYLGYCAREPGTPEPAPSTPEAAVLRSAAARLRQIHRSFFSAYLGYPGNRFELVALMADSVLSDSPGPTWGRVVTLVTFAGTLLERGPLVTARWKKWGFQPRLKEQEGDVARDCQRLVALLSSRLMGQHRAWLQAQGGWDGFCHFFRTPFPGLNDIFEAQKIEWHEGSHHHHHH

B1: Index 67 (designed binder)
chain: GNRSEEVKELMRELAERVLLKFRWRADEMNKEKDKKYDKEELKRELTEKWIAFALDAIGDLFNAAELAKKLADLFKKGTGFLEERLERRKEEIEKLEEKGSRKVSYEGRREAEKIESG
B2: Index 47 (designed binder)
chain: GWSADWIKDQAKELMLRAAEEMKKRADEEEKKFKYKQFTTEFLTKATMRWIALALMAIGDVFNVLMWALEWAKRMAKLNQYRKEELEKAKEEAKKLAEKAARRITEIGREAEQKALKG
B3: Index 15 (designed binder)
chain: GNDRDQIEEYHRERMDEELDRAKKRLEELKKLWEKLDGDDLMKFFWTFKWIAESLKIIGDLFNRLLRTWEFAEALKKGIGFDEKKAEEAKERAYERAAEAAWKAAKLSREMREFLLKG
B4: Epstein-Barr virus BHRF1 a.a. 1-161 with C-terminal avi-6his tag (other)
chain: AYSTREILLALCIRDSRVHGNGTLHPVLELAARETPLRLSPEDTVVLRYHVLLEEIIERNSETFTETWNRFITHTEHVDLDFNSVFLEIFHRGDPSLGRALAWMAWCMHACRTLCCNQSTPYYVVDLSVRGMLEASEGLDGWIHQQGGWSTLIEDNIPGSGLNDIFEAQKIEWHEGSHHHHHH
notes: also called EBV BHRF1; BHRF1-biotin
B5: human Bcl-w a.a. 1-182 with C-terminal avi-6his tag (other)
chain: MATPASAPDTRALVADFVGYKLRQKGYVCGAGPGEGPAADPLHQAMRAAGDEFETRFRRTFSDLAAQLHVTPGSAQQRFTQVSDELFQGGPNWGRLVAFFVFGAALCAESVNKEMEPLVGQVQEWMVAYLETQLADWIHSSGGWAEFTALYGDGALEEARRLREGNWASVRTVLTGAVALGAGLNDIFEAQKIEWHEGSHHHHHH
notes: range 1-182; also called BCL2L2
B6: human Mcl-1 a.a. 172-327 with C-terminal avi-6his tag (other)
chain: GSDELYRQSLEIISRYLREQATGAKDTKPMGRSGATSRKALETLRRVGDGVQRNHETAFQGMLRKLDIKNEDDVKSLSRVMIHVFSDGVTNWGRIVTLISFGAFVAKHLKTINQESCIEPLAESITDVLVRTKRDWLVKQRGWDGFVEFFHVEDLEGGGLNDIFEAQKIEWHEGSHHHHHH
B7: human Bfl-1 a.a. 1-153 (C4S) with C-terminal avi-6his tag (other)
chain: TDSEFGYIYRLAQDYLQCVLQIPQPGSGPSKTSRVLQNVAFSVQKEVEKNLKSCLDNVNVVSVDTARTLFNQVMEKEFEDGIINWGRIVTIFAFEGILIKKLLRQQIAPDVDTYKEISYFVAEFIMNNTGEWIRQNGGWENGFVKKFEPKSGGLNDIFEAQKIEWHEGSHHHHHH
notes: also called A1/Bfl-1
B8: F-CDP01 (designed binder)
chain: ADPKKVLDKAKDQAENRVRELKQKLEELYKEARKLDLTQEMRKKLQYAAIGAMLAAIGDILNAIMQAKQEADKLKKAGLVNSQQLDELKRRLEELKEEALRKAHDYGSEFYLKLEY
B9: FINDI (designed binder)
chain: ADPKKVLDKAKDQAENRVRELKQKLEELYKEARKLDLTQEKRKKLEVATLGAVLAAHGDILNAIMQAKEEADKLKKAGLVNSQQLDELKRRLEELKEEALRKASDYGNEFHLKRRY
notes: also called αBFL1
B10: F-ECM04 (designed binder)
chain: ADPKKVLDKAKDQAENRVRELKQKLEELYKEARKLDLTQEMRKKLEVAALGAVLAAHGDILNAIMQAKEEADKLKKAGLVNSQQLDELKRRLEELKEEALRKASDYGKEFHLKRRYG
B11: 10-INDI (designed binder)
chain: ADPKKILDKAKDQVENRVRELKQELERLYKEARKLDLTQEMRRKLHVRYIEAMLKAIAAIMNAIAQAENEADKLKKAGLVNSQQLDELRRRLEELTEEAAQKAHDYGRELQLKLEY
notes: also called αBCLB
B12: 10-CDP01 (designed binder)
chain: ADPKKVLDKAKDQAENRVRELKQELERLYKEARKLDLTQEMRRKLEWRYIAAMLKAIGDILNAIAQAENEADKLKKAGLVNSQQLDELRRRLEELAKEAARKAHDYGREFQLKLEY
notes: also called B-CDP01
B13: 10-ECM01 (designed binder)
chain: ADPKKILDKAKDQVENRVRELKQELERLYKEARKLDLTQEMRRKLHVRYIAAMLKAIAAILNAIAQAENEADKLKKAGLVNSQQLDELRRRLEELTEEAAQKAHDYGREFQLKLEYG
B14: 2-CDP03 (designed binder)
chain: ADPKKVLDKAKDQAENRVRELKQKLEELYKEARKLDLTQEMRRELKERALAARLQAVGDIFYAILQAKSEADKLKKAGLVNSQQLDELKRRLEELAEEAQRKARDYGIEFALKLEY
B15: 2-CDP07 (designed binder)
chain: ADPKKVLDKAKDDAENRVRELKQKLEELYKEARKLDLTQEERDELKLKAIAASLQASGDIYNAILRALEEARKLKKAGLVNSQQLDELKRRLEELAEEAQRKANKLGDEFRLKLEY
B16: 2-CDP01 (designed binder)
chain: ADPKKVLDKAKDQAENVVRKLKQELEELYKEARKLDLTQDMREKIKLRAEAAELQAIGDIFQAILQAKMEAKKLYDAGLVNSQQLDELKRRLEELAKEAEDRAAKLGKEFLQKLEYG
B17: 2-CDP02 (designed binder)
chain: ADPKKVLDKAKDRAENAVRELKQKLEELYKEARKLDLTQDMRNKLIMKAIAAELRAIGDIFQAILEAKAEAKKLLDAGLVNSQQFDELKRRLEELEEEAAERARKLGDEFRQKLEYG
B18: BbpD04 (designed binder)
chain: ADWKKVLDKAKDIAENRVREIKQKLEEFYKKAMKLDLTQEMRRKLMLEWIAAMLMAIGDIFNAIEQAKQEADKLKKAGQVNSQLLDELKRRLEELKEEASRKCHDYGREFQLKLEY

Molecular target: B4
Experiment: yeast surface display

Question: Does B1 bind?
Answer: no binding

Question: Does B2 bind?
Answer: no binding

Question: Does B3 bind?
Answer: no binding

molecular target: T2, Bim-BH3 motif fused to the C-terminus of maltose-binding protein (MBP) (human, UniProt O43521 141-166); experiment: BLI, biotinylated target on streptavidin sensor, MBP-Bim-BH3 in solution
T2 construct: domain: Bim-BH3 motif; also called MBP-Bim-BH3
T2 sequence (O43521 141-166 limits assumed): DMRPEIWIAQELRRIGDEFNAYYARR

Question: With B4 as the binder, how does the Kd read?
Answer: 7 nM

Question: B5 was tested. Which Kd did it give?
Answer: 20 nM

Question: For B6, which Kd is on record?
Answer: 0.17 nM

Question: How did the Kd turn out when B7 was run?
Answer: 0.61 nM

Molecular target: B7
Experiment: ratio of the KD of the next tightest BCL2 protein to the KD of the target, BLI

Question: Which Specificity does the source give for B8 here?
Answer: 1.8 fold

Question: How did the Specificity turn out when B9 was run?
Answer: 350 fold

Question: Which Specificity does the source give for B10 here?
Answer: 91 fold

Molecular target: T1, human Bcl-B a.a. 11-175 with C-terminal …
Experiment: as above

Question: B11 was tested. Which Specificity did it give?
Answer: 1010 fold

Question: B12 was tested. Which Specificity did it give?
Answer: 0.05 fold

Question: How did the Specificity turn out when B13 was run?
Answer: 31 fold

molecular target: T3, human Bcl-2 a.a. 1-207 with C-terminal avi-6his tag (human, UniProt P10415 2-207); experiment: initial BLI screening (column 'Binds target?')

Question: Does B14 bind?
Answer: binds

Question: Does B15 bind?
Answer: binds

Question: Does B16 bind?
Answer: binds

Question: Does B17 bind?
Answer: binds

molecular target: human Bim-BH3 (a.a. 141-166) displayed on yeast (human, UniProt O43521 141-166); experiment: yeast surface display titration (apparent KD)

Question: B4 was tested. Which Kd did it give?
Answer: 12 nM

Question: For B5, which Kd is on record?
Answer: 2.1 nM

Question: For B6, which Kd is on record?
Answer: 0.6 nM

Question: B7 was tested. Which Kd did it give?
Answer: 2.1 nM

Molecular target: B6
Experiment: yeast surface display titration (apparent KD)

Question: With B18 as the binder, how does the Kd read?
Answer: 17 nM

molecular target: B5; experiment: BLI, biotinylated target on streptavidin sensor, range of analyte concentrations

Question: Which Kd does the source give for B8 here?
Answer: 590 nM

Question: For B9, which Kd is on record?
Answer: 7400 nM

Question: For B10, which Kd is on record?
Answer: 3800 nM

Question: With B12 as the binder, how does the Kd read?
Answer: 900 nM

Question: For B13, which Kd is on record?
Answer: 19000 nM

Molecular target: B7
Experiment: as above

Question: How did the “apparent Kd (pooled screen)” value turn out when B8 was run?
Answer: 2.6 nM

Question: Which Kd does the source give for B9 here?
Answer: 0.91 nM

Question: For B10, which Kd is on record?
Answer: 1.1 nM

Question: For B12, which Kd is on record?
Answer: 250 nM

Question: For B13, which Kd is on record?
Answer: 2380 nM

molecular target: T3, human Bcl-2 a.a. 1-207 with C-terminal …; experiment: as above

Question: For B8, which Kd is on record?
Answer: 20 nM

Question: With B9 as the binder, how does the Kd read?
Answer: 321 nM

Question: How did the Kd turn out when B10 was run?
Answer: 100 nM

Question: How did the Kd turn out when B12 was run?
Answer: 14 nM

Question: With B13 as the binder, how does the Kd read?
Answer: 12500 nM

molecular target: T4, human Bcl-XL a.a. 1-205 with C-terminal avi-6his tag (human, UniProt Q07817 2-206); experiment: as above
T4 construct: also called BCL2L1
T4 sequence (Q07817 other isoform, or with tags, fused parts or gaps limits assumed): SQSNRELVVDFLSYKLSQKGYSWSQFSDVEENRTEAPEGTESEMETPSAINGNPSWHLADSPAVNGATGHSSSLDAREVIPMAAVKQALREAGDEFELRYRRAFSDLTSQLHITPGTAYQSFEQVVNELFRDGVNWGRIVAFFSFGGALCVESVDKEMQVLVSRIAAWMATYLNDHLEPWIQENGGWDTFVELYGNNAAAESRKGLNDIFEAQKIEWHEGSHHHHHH

Question: Which Kd does the source give for B8 here?
Answer: 9 nM

Question: Which Kd does the source give for B9 here?
Answer: 900 nM

Question: For B10, which Kd is on record?
Answer: 540 nM

Question: B12 was tested. Which Kd did it give?
Answer: 16 nM

Question: With B13 as the binder, how does the Kd read?
Answer: 7800 nM

Molecular target: T1, human Bcl-B a.a. 11-175 with C-terminal …
Experiment: as above

Question: With B8 as the binder, how does the Kd read?
Answer: 210000 nM

Question: How did the Kd turn out when B9 was run?
Answer: 31000 nM

Question: With B10 as the binder, how does the Kd read?
Answer: 4000 nM

Question: How did the “apparent Kd (pooled screen)” value turn out when B12 was run?
Answer: 9 nM

Question: B13 was tested. Which Kd did it give?
Answer: 77 nM

Molecular target: B6
Experiment: as above

Question: With B8 as the binder, how does the Kd read?
Answer: 4.6 nM

Question: With B9 as the binder, how does the Kd read?
Answer: 1700 nM

Question: With B10 as the binder, how does the Kd read?
Answer: 255 nM

Question: B12 was tested. Which Kd did it give?
Answer: 0.47 nM

Question: For B13, which Kd is on record?
Answer: 3650 nM

Molecular target: B4
Experiment: yeast display library, FACS sort at 400 nM BHRF1, deep sequencing

Question: For B1, which Log2 enrichment ratio is on record?
Answer: -3.44 log2

Question: For B2, which Log2 enrichment ratio is on record?
Answer: -2.79 log2

Question: For B3, which Log2 enrichment ratio is on record?
Answer: -0.71 log2

Molecular target: B4
Experiment: yeast display library, FACS sort at 100 nM BHRF1, deep sequencing

Question: With B1 as the binder, how does the Log2 enrichment ratio read?
Answer: -3.48 log2

Question: With B2 as the binder, how does the Log2 enrichment ratio read?
Answer: -3.13 log2

Question: With B3 as the binder, how does the Log2 enrichment ratio read?
Answer: -2.77 log2
